The text below walks through data of patent US20220281931.

This series concerns the target Strep II-Avi BCL6^5-360.

B1: Flag-SIAH1^FL (protein)
chain: MSRQTATALPTGTSKCPPSQRVPALTGTTASNNDLASLFECPVCFDYVLPPILQCQSGHLVCSNCRPKLTCCPTCRGPLGSIRNLAMEKVANSVLFPCKYASSGCEITLPHTEKADHEELCEFRPYSCPCPGASCKWQGSLDAVMPHLMHQHKSITTLQGEDIVFLATDINLPGAVDWVMMQSCFGFHFMLVLEKQEKYDGHQQFFAIVQLIGTRKQAENFAYRLELNGHRRRLTWEATPRSIHEGIATAIMNSDCLVFDTSIAQLFAENGNLGINVTISMC
In the case of B1, the “in vitro ubiquitination (western blot, Strep tag II antibody)” value was “BCL6 is a substrate for SIAH1 (FIG. 10D), and that the rate and magnitude of ubiquitination is accelerated by BI-3802 (FIG. 4B)”.
